The values that follow come from US20080227698A1, “OLIGOPEPTIDES FOR TREATMENT OF OSTEOPOROSIS AND OTHER BONE DISEASES AND METHODS THEREOF” (Washington University, priority 2005, published 2008).

Holding throughout (design): plasmid pCS-Myc-hLRP6 containing the full-length human LRP6 cDNA; HA; expressed in transfected cells; host or cells: human HT1080 cells, stably transduced (pLNCX2 retroviral vector)
Test [1] deals with T1, LRP6 (Homo sapiens, UniProt O75581). Briefly: LRP6-mediated ^125I-DKK1 degradation in LRP6-transduced HT1080 cells. In kind it is cell-based. The conditions noted are these: 500 nM competitor, 4 hours at 37° C. As to the method: Ligand degradation was performed using the methods as described (Li, Y., J. Biol. Chem. 275: 17187-17194, 2000). Briefly, 2×10^5 cells were seeded into 12-well dishes 1 day prior to assay. Pre-warmed assay buffer (minimal Eagle's medium containing 0.6% BSA with radioligand, 0.6 ml/well) was added to cell monolayers in the absence or the presence of unlabeled 500 nM RAP or 500 nM Mesd, followed by incubation for 4 hours at 37° C. Thereafter, the medium overlying the cell monolayers was removed and proteins were precipitated by addition of BSA to 10 mg/ml and trichloroacetic acid to 20%. […] After each time point, the plates were quickly placed on ice and the assay buffer was replaced with cold stop/strip solution. ^125I-anti-HA IgG that remained on the cell surface was stripped by incubation of cell monolayers with cold stop/strip solution for a total of 20 minutes (0.75 ml for 10 minutes, twice) and counted. Cell monolayers were then solubilized with low-SDS lysis buffer and counted. […] The fraction of internalized ^125I-anti-HA IgG after each time point was calculated and plotted.
RAP is a receptor antagonist for members of the LDLR family, and is able to inhibit the binding of most known ligands of the LDLR family members. […] Cell-surface-bound Myc-tagged DKK proteins were fixed and detected by immunofluorescence staining with anti-Myc antibody. […]

The target in test [2] is T1, LRP6. Briefly: LRP6-mediated ^125I-Mesd degradation in LRP6-transduced HT1080 cells. Type of test: cell-based. The conditions noted are these: ^125I-Mesd 5 nM, 4 hours at 37° C. As to the method: Ligand degradation was performed using the methods as described (Li, Y., J. Biol. Chem. 275: 17187-17194, 2000). Briefly, 2×10^5 cells were seeded into 12-well dishes 1 day prior to assay. Pre-warmed assay buffer (minimal Eagle's medium containing 0.6% BSA with radioligand, 0.6 ml/well) was added to cell monolayers in the absence or the presence of unlabeled 500 nM RAP or 500 nM Mesd, followed by incubation for 4 hours at 37° C. Thereafter, the medium overlying the cell monolayers was removed and proteins were precipitated by addition of BSA to 10 mg/ml and trichloroacetic acid to 20%. Degradation of radioligand was defined as the appearance of radioactive fragments in the overlying medium that were soluble in 20% trichloroacetic acid. Kinetic analysis of endocytosis LRP6-transduced HT1080 cells were plated in 12-well plates at a density of 2×10^5 cells/well and used after overnight culture. Cells were rinsed twice in ice-cold assay buffer (minimal Eagle's medium containing 0.6% BSA), and ^125I-anti-HA IgG was added at 1 nM final concentration in cold assay buffer (0.5 ml/well). The binding of ^125Ianti- HA IgG was carried out at 4° C. for 90 minutes with gentle rocking. Unbound ^125I-anti-HA IgG was removed by washing cell monolayers three times with cold assay buffer. Ice-cold stop/strip solution (0.2 M acetic acid, pH 2.6, 0.1 M NaCl) was added to one set of plates without warming up and kept on ice. The remaining plates were then placed in a 37° C. water bath and 0.5 ml assay buffer prewarmed to 37° C. was quickly added to cell monolayers to initiate internalization. After each time point, the plates were quickly placed on ice and the assay buffer was replaced with cold stop/strip solution. ^125I-anti-HA IgG that remained on the cell surface was stripped by incubation of cell monolayers with cold stop/strip solution for a total of 20 minutes (0.75 ml for 10 minutes, twice) and counted. Cell monolayers were then solubilized with low-SDS lysis buffer and counted. […] The fraction of internalized ^125I-anti-HA IgG after each time point was calculated and plotted. […]

Test [3] addresses T1, LRP6. The test can be described thus: ^125I-Mesd binding to LRP6, competition by Mesd or oligopeptide (FIG. 10C). The conditions noted are these: compared with LRP5 (up to about 10-fold). As to the method:
In order to investigate the binding of Mesd polypeptide and an Mesd oligopeptide to either LRP5 or LRP6, binding assays were performed using ^125I-Mesd or ^125I-DKK1 (FIG. 10).

T1 sequence (O75581 20-1613): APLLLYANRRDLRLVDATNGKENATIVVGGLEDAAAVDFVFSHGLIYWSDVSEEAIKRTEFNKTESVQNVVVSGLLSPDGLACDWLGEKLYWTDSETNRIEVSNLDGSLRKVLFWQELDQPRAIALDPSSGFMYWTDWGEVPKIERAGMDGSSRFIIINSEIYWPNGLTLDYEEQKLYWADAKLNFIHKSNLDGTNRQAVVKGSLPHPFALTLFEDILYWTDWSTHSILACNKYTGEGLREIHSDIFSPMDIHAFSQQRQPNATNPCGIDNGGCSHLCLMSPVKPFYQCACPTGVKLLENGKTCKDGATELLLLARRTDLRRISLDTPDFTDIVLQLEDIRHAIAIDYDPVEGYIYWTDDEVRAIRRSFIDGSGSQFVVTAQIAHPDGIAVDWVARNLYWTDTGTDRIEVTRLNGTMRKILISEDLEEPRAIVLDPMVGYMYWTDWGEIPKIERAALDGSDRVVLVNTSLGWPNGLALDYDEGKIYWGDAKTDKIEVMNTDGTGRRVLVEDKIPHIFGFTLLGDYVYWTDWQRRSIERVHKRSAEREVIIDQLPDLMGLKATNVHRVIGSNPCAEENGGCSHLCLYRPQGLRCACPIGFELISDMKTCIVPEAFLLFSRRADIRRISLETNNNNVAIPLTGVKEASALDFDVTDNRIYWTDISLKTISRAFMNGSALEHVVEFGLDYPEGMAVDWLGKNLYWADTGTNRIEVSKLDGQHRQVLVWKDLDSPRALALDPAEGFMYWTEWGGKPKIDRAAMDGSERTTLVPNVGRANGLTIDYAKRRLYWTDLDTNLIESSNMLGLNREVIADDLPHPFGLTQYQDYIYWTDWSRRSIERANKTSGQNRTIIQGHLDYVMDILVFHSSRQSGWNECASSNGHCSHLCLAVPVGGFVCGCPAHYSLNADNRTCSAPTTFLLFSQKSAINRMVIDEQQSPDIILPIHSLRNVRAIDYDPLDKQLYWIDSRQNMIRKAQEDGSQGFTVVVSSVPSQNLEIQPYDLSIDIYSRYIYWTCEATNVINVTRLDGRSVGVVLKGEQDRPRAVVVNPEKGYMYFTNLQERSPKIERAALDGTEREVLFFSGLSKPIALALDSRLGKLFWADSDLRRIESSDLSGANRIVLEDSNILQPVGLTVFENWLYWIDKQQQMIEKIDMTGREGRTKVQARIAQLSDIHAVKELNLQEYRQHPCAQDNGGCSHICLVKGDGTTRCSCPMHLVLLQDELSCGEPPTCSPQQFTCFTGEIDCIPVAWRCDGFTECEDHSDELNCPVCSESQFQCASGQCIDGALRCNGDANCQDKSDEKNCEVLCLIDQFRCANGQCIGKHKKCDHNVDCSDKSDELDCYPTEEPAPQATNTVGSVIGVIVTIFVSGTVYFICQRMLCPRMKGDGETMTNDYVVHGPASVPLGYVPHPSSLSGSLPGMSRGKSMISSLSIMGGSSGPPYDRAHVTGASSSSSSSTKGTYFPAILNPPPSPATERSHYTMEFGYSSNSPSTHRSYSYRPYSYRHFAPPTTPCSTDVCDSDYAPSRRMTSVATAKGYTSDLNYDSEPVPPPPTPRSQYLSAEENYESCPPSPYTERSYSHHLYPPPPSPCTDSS

B1: Mesd: recombinant wild-type mouse Mesd, polyhistidine tail at the N-terminus, lacks the signal peptide, expressed in E. coli (protein)
chain: ADTPGEATPPPRKKKDIRDYNDADMARLLEQWEKDDDIEEGDLPEHKRPSAPIDFSKLDPGKPESILKMTKKGKTLMMFVTVSGNPTEKETEEITSLWQGSLFNANYDVQRFIVGSDRAIFMLRDGSYAWEIKDFLVSQDRCAEVTLEGQMYPGKGGGSKEKNKTKPEKAKKKEGDRKPRASKEDNRAGSRREDL
modifications: left off: small tags and cut ends
notes: recombinant wild-type mouse Mesd, polyhistidine tail at the N-terminus, lacks the signal peptide, expressed in E. coli
With B1, the “Effect of excess unlabeled competitor on increased DKK1 degradation” value with LRP6 [1] is listed as “abolished”. Besides, in the test with LRP6 [2] (500 nM unlabeled competitor), the “Inhibition of ^125I-Mesd degradation” value is on record as “completely”. Further, in the test with LRP6 [2] (HT1080 cells transduced with LRP6), the “^125I-Mesd degradation level” value is recorded as 320 fmoles/mg cell protein. The “Reduction of binding of ^125I-Mesd to LRP6” value in the test with LRP6 [3] is listed as “even greater reduction”.
